The source of these data is FireProtDB (doi:10.1002/pro.5560041213).

The conditions of the data set: Halorhodospira halophila, Thermal, DSC, reversible: yes, whole UniProt chain shown.

B1: High-potential iron-sulfur protein isozyme 1 wild type, P04168 (protein)
chain: EPRAEDGHAHDYVNEAADASGHPRYQEGQLCENCAFWGEAVQDGWGRCTHPDFDEVLVKAEGWCSVYAPAS
Turning to B1, the Tm is 67.7 °C (pH 7, MOPS 20 mM); 66.4 °C (pH 9, TAPS 20 mM); 66.5 °C (pH 10, CAPS 20 mM); 50.3 °C (pH 11, piperidine 40 mM).

The term Tm denotes the temperature at the midpoint of the melting transition.
